# According to paper PMC12423496:
# Target: T1, sHdrR-trunc (Hyphomicrobium denitrificans XT) (UniProt D8JT17)
# T1 sequence: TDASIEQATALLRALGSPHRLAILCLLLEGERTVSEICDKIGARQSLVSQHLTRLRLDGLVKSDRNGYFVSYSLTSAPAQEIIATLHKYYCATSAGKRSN
# Assay: EMSA
# Conditions: 10 mM Tris-HCl, 50 mM KCl, 1 mM DTT, pH 8.0 (1x of 10x buffer), about 7% glycerol; 20 min RT then 30 min at 30 C with 17 nM DNA; 6% native PAGE, 0.25x TBE, 4 C
row,Sequence,binding
1,TCGACAGCTTGCGGAAATCCGCAATCGAGATCGAAGCCATCGATCGTATTCGAATAGCACGTTCAGCTTCTGCGGAAGCGAACAACGCAACCGGCGCCAAGAGATAAATCTACATCGATCGTCGCGCCGGATGCGTTCACGTTGCCAAGGAATTCCTCACCGGCGGAGCCGTGGAATT (double strand),no binding
2,CGGCCCTCTGAGAAAAGACGCACACGTCGCGCCAAAAACATATGAACATTCGCATGATGGAATATAACAGCCCTGCCGATCGCACAAGGCTCGCTTTAAACGCGGACGCGTCTTCGCAGCGCACACGCATGCGCTGGACGTCCGATCATGTGAAAATTGGGCTGAAGACTCGCTCTA (double strand) [upstream of lipS1],binds
3,GGGTCACCAAATTCTGCAGGTCTCAATGCGAATGCGAGGCTGCTCCAGCTAGACGAAAAACAAGGAACGTTGCAATAGATAATTCACATATGATAATTTTCATATGTGTTATAGGATGAACGTTATCGCAGCTTCCGGGAGAGATGGCGTGAT (double strand) [soxA-soxY intergenic region],binds
4,TGCCACCTCCCCGATATGCGTGGCTTTTGTTGTTTTGCCACTTCAGTTCTTGTGTAACTTCCTCTTTAGAACCAGTCAATATTACATTCGCATGTTTGAATATTCCATTTTTCTATATGTTCATCGAATTGGAAAAGTTATTCAAATATATCGCGATCGATTGATCGGCGAAGTC (double strand) [upstream of dsrE3C],binds
